As a reminder, the Kd is the equilibrium constant for the complex coming apart. The stoichiometry N is the number of molecules, sites or subunits per partner or assembly.

Data set [1] addresses MBP–CEP215^1661-1893 (human) (UniProt Q96SN8). Description: ITC; 25 µM MBP–CEP215 1661-1893 in the cell, titrated with 250 µM PCNT fragment, 29 injections, 25°C, MicroCal PEAQ-ITC. On the technique in general: In ITC the heat of successive injections is recorded.
Data set [2] concerns the target T1, MBP–CEP215^1814-1877 (human, UniProt Q96SN8 1814-1877).
T1 construct: CEP215 (CDK5RAP2), human, residues 1814-1877; source: E. coli Rosetta (DE3) (pET Duet-1 vector), purified (amylose column, SEC)
T1 sequence (looked up): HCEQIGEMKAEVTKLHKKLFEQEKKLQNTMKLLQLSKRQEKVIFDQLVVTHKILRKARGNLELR
Briefly: SEC; mixture of the two purified proteins, size exclusion chromatography followed by SDS-PAGE of the fractions. As to conditions: both partners purified. For orientation: SEC sorts molecules by how far they enter the pores of the column.

Data set [3] concerns the molecule itself. Briefly: SEC-MALS; each purified protein at 1 to 5 mg/ml on Superdex 200 Increase 5/150 GL with MALS-UV-RI detectors.

In turn, “PCNT fragment used in the ITC experiment (from UniProt O95613 2350-2450) (domain or fragment)” had a Kd in data set [1] of 164 nM. This counts as sub-micromolar.

B1: MBP–PCNT^2388-2420 (domain or fragment, human, UniProt O95613 2388-2420, looked up)
chain: RPKHVKALLQMVRDESHQILALSEGLAPPSGEP
notes: PCNT (pericentrin), human, residues 2388-2420; source: E. coli Rosetta (DE3) (pET Duet-1 vector), purified (amylose column, SEC)
On to B1, for which, in data set [2], the binding result is “binds”.

B2: PCNT^2350-2450 (domain or fragment, human, UniProt O95613 2350-2450, looked up)
chain: RLSPGSGGPEAQTAGPVTPASISGRFQPLPEAMKEKEVRPKHVKALLQMVRDESHQILALSEGLAPPSGEPHPPRKEDEIQDISLHGGKTQEVPTACPDWR
notes: PCNT (pericentrin), human, residues 2350-2450; Homodimer by SEC-MALS; calculated monomer mass 11.3 kDa, which fits a fragment without MBP; source: bacterially expressed, purified (amylose column, TEV cleavage, anion exchange, SEC)
B2: the “stoichiometry N” value in data set [3] was 2.

B3: MBP–CEP215^1661-1893 (domain or fragment, human, UniProt Q96SN8 1661-1893, looked up)
chain: MESDNSFDLFDSSQAVTPKSVSETPPLSGNDTDSLSCDSGSSATSTPCVSRLVTGHHLWASKNGRHVLGLIEDYEALLKQISQGQRLLAEMDIQTQEAPSSTSQELGTKGPHPAPLSKFVSSVSTAKLTLEEAYRRLKLLWRVSLPEDGQCPLHCEQIGEMKAEVTKLHKKLFEQEKKLQNTMKLLQLSKRQEKVIFDQLVVTHKILRKARGNLELRPGGAHPGTCSPSRPGS
notes: Homodimer by SEC-MALS; calculated monomer mass with MBP 71.8 kDa; also called CEP215 fragment; source: bacterially expressed (pPROEX vector), purified (amylose column, SEC)
As to B3, the “stoichiometry N” value in data set [3] was found to be 2.

Values taken from publication PMC12148038, “Enhancement of CEP215 dynamics for spindle pole assembly during mitosis” (Journal of Cell Science, 2025).
